We go through 36 substances from patent US11306156.

In assay [1] the target is tissue factor (TF) antigen (UniProt P13726). Kind of assay: SPR (ProteOn), Fab captured on anti-penta-His surface, TF injected; reference wild-type D3H44 Fab.
The target is the same in assay [2]. In words: SPR (ProteOn), Fab captured on anti-penta-His surface, TF injected, 1:1 fit.
For assay [3] the target is unchanged. Kind of assay: SPR (ProteOn XPR36), Fab captured on anti-penta-His, TF injected, 1:1 fit; batch C (+).
The target is the same in assay [4]. In words: SPR, against wild-type D3H44 Fab; batch C (+).
Assay [5] shares this target. Kind of assay: SPR (ProteOn XPR36), Fab captured on anti-penta His surface, TF injected as analyte, 1:1 model.
The target is the same in assay [6]. Kind of assay: SPR, same assay; reference wild-type D3H44 Fab. Background: SPR reads the build-up and loss of mass on a sensor chip optically.
The target is the same in assay [7]. In words: SPR (ProteOn XPR36), His-tagged Fab captured on anti-penta His, TF as analyte, 1:1 fit.
Assay [8] has the same target. Kind of assay: SPR, Fab captured on anti-penta-His surface, TF as analyte, 1:1 fit; Fab batch C; against wild-type D3H44 Fab.
Assay [9] shares this target. In words: SPR, Fab captured on anti-penta-His surface, TF as analyte, 1:1 fit; Fab batch C.
Assay [10] shares this target. Kind of assay: SPR, Fab captured on anti-penta His, TF injected, 1:1 fit.
For assay [11] the target is unchanged. In words: SPR; reference wild-type D3H44 Fab.
For assay [12] the target is unchanged. In words: SPR, Fab captured on anti-penta-His, TF as analyte, 1:1 fit.

tissue factor (TF) antigen, sequence (P13726 33-251 limits assumed): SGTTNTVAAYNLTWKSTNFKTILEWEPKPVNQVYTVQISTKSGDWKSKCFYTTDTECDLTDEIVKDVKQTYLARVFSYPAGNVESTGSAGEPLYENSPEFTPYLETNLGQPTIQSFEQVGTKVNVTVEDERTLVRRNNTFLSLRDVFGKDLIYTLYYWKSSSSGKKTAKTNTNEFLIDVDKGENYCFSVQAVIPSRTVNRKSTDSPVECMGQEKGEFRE

In general, Kd refers to the constant that tells how readily two partners part at equilibrium. “D3H44 H1L1 Fab heterodimer of LCCA Set # 9538 (H1 L124R_S186R; L1 V133G_S176D_T178D_T180E)” showed a Change in median values of KD of h1l1 Fab heterodimer compared to wild type (-(log(KD design)-log(KD wt))) in assay [1] of -0.04. In addition, the Kd in [2] came to 0.17 nM.
On the same counts, the results for “D3H44 H1L1 Fab heterodimer of LCCA Set # 9362 (H1 L124R_D146N_Q179K; L1 V133G_S176D_T178E_T180E)” are -0.01 and 0.16 nM.
The substance “H1L1 Fab heterodimer of LCCA Set # 9906 (D3H44 Fab; H1 S188G, L1 S176L)” returned a Kd in [3] of 0.11 nM. Further, the Change in median values of KD of h1l1 Fab heterodimer compared to wild type (-(log(KD design)-log(KD wt))) in assay [4] was 0.14.
Consider “D3H44 H1L1 Fab heterodimer of LCCA Set # 9270 (H1 L124E_L143E_K145M; L1 Q124K_V133G_S176R_T178R)”, for which the Change in median values of KD of h1l1 Fab heterodimer compared to wild type (-(log(KD design)-log(KD wt))) in [1] is -0.29. For the same substance, the Kd in assay [2] is 0.31 nM.
For “D3H44 H1L1 Fab heterodimer of LCCA Set # 9185 (H1 L124E_L143D_K145M; L1 Q124K_V133G_S176R_T178R)”, in that order: 0.09 and 0.13 nM.
In turn, “D3H44 H1L1 Fab heterodimer of LCCA Sets # 9176, 9178 and 9179 (H1 L124E_L143D_K145M; L1 Q124K_V133G_S176R_T178K)” displayed a Change in median values of KD of h1l1 Fab heterodimer compared to wild type (-(log(KD design)-log(KD wt))) in assay [1] of -0.15. Also, in assay [2], the Kd was 0.22 nM.
In turn, “H1L1 Fab heterodimer of LCCA set 9225 (D3H44 Fab, H1 L124E_L143D_K145T, L1 Q124K_V133G_S176R_T178R)” registered a Kd in assay [5] of 0.16 nM. In assay [6], the change in median KD of H1L1 Fab heterodimer compared to wild type (-(log(KD design)-log(KD wt))) was -0.02.
As to “H1L1 Fab heterodimer of LCCA Set # 9781 and 9782 (D3H44 Fab; H1 Q179K, L1 Q124E_S176L_T180E)”, the Kd in [3] was 0.08 nM. Moreover, the Change in median values of KD of h1l1 Fab heterodimer compared to wild type (-(log(KD design)-log(KD wt))) in assay [4] amounted to 0.28.
Take “D3H44 Fab heterodimer, H1 A139C_C233S / L1 F116C_C214S (H1L1 Fab of LCCA Set # 9041)”: the dissociation constant Kd in [7] was 0.14 nM.
In the case of “H1L1 Fab heterodimer of LCCA set 9358 (D3H44 Fab, H1 L124R_D146N_Q179K, L1 V133G_S176D_T178E)”, the Kd in assay [5] was determined as 0.18 nM. In [6], this substance displayed a change in median KD of H1L1 Fab heterodimer compared to wild type (-(log(KD design)-log(KD wt))) of -0.07.
As to “D3H44 H1L1 Fab heterodimer of LCCA Sets # 9521 and 9520 (H1 L124R_S186R; L1 V133G_S176D_T178D)”, the Change in median values of KD of h1l1 Fab heterodimer compared to wild type (-(log(KD design)-log(KD wt))) in assay [1] was -0.1. Also, in assay [2], the Kd was 0.2 nM.
In turn, “D3H44 H1L1 Fab heterodimer of LCCA Set # 9831 (H1 S186K; L1 Q124E_Q160E_T180E)” registered a change in median KD compared to wild type, -(log(KD design)-log(KD wt)) in assay [8] of 0.09. Besides, the Kd in [9] was 0.13 nM.
Take “H1L1 Fab heterodimer of LCCA set 9516 (D3H44 Fab, H1 L124R_S186R, L1 Q124E_V133G_S176D_T178D_T180E)”: the Kd in assay [5] amounted to 0.26 nM. In assay [6], this substance registered a change in median KD of H1L1 Fab heterodimer compared to wild type (-(log(KD design)-log(KD wt))) of -0.21.
For “H1L1 Fab heterodimer of LCCA set 9269 (D3H44 Fab, H1 L124E_L143E_K145M, L1 Q124K_V133G_S176R_T178R)”, in that order: 0.31 nM and -0.29.
For “H1L1 Fab heterodimer of LCCA set 9260 (D3H44 Fab, H1 L124E_L143E_K145M, L1 Q124K_V133G_S176R_T178K)”, in that order: 0.24 nM and -0.19.
On the same counts, the results for “H1L1 Fab heterodimer of LCCA set 9354 (D3H44 Fab, H1 L124R_D146N_Q179K, L1 V133G_Q160E_S176D_T180E)” are 0.17 nM and -0.04.
With “D3H44 Fab heterodimer, H1 F122C_C233S / L1 S121C_C214S (H1L1 Fab of LCCA Set # 9043)”, the Kd in assay [7] came to 0.16 nM.
In assay [3], “H1L1 Fab heterodimer of LCCA Set # 9779 and 9780 (D3H44 Fab; H1 Q179K, L1 Q124E_S131T_T178Y_T180E)” came in with a dissociation constant (Kd) of 0.16 nM. This substance also gave a Change in median values of KD of h1l1 Fab heterodimer compared to wild type (-(log(KD design)-log(KD wt))) in assay [4] of -0.01.
Consider “D3H44 H1L1 Fab heterodimer of LCCA Sets # 9505 and 9503 (H1 L124R_S186R; L1 Q124E_V133G_S176D_T178D_T180E)”, for which the Change in median values of KD of h1l1 Fab heterodimer compared to wild type (-(log(KD design)-log(KD wt))) in assay [1] was -0.21. In addition, the equilibrium dissociation constant (Kd) in assay [2] came out at 0.26 nM.
“D3H44 H1L1 Fab heterodimer of LCCA Set # 9809 (H1 Q179R; L1 Q124E_T178E)” displayed a change in median KD compared to wild type, -(log(KD design)-log(KD wt)) in assay [8] of 0.04. In addition, in [9], the Kd amounted to 0.14 nM.
Substance “H1L1 Fab heterodimer of LCCA set 9351 (D3H44 Fab, H1 L124R_D146N_Q179K, L1 Q124E_V133G_S176D_T178E_T180E)” showed a Kd in assay [5] of 0.2 nM. This substance also displayed a change in median KD of H1L1 Fab heterodimer compared to wild type (-(log(KD design)-log(KD wt))) in [6] of -0.1.
Take “H1L1 Fab heterodimer of LCCA Set # 9803 and 9804 (D3H44 Fab; H1 Q179R, L1 Q124E_S131T_T178F_T180E)”: in [3], the Kd worked out at 0.11 nM. In addition, in [4], the Change in median values of KD of h1l1 Fab heterodimer compared to wild type (-(log(KD design)-log(KD wt))) turned out to be 0.14.
Consider “D3H44 H1L1 Fab heterodimer of LCCA Set # 9784 (H1 Q179K; L1 Q124E_T178E)”, for which the change in median KD compared to wild type, -(log(KD design)-log(KD wt)) in [8] came to 0.05. The Kd in [9] was found to be 0.14 nM.
For “D3H44 H1L1 Fab heterodimer of LCCA Set # 9901 (H1 S186R; L1 Q124E_T180E)”, in that order: 0.36 and 0.07 nM.
“H1L1 Fab heterodimer of LCCA Set # 9845 and 9846 (D3H44 Fab; H1 S186K, L1 Q124E_S131T_T178Y_T180E)” came in with a Kd in assay [3] of 0.13 nM. In addition, the Change in median values of KD of h1l1 Fab heterodimer compared to wild type (-(log(KD design)-log(KD wt))) in assay [4] was determined as 0.09.
In assay [1], “D3H44 H1L1 Fab heterodimer of LCCA Set # 9344 (H1 L124R_A125R; L1 V133G_S176D_T178D)” showed a Change in median values of KD of h1l1 Fab heterodimer compared to wild type (-(log(KD design)-log(KD wt))) of -0.23. In assay [2], this substance came in with a dissociation constant (Kd) of 0.27 nM.
In assay [1], “D3H44 H1L1 Fab heterodimer of LCCA Sets # 9237, 9236, 9234, 9239, 9243 and 9240 (H1 L124E_L143D_K145T; L1 V133G_S176R_T178K)” yielded a Change in median values of KD of h1l1 Fab heterodimer compared to wild type (-(log(KD design)-log(KD wt))) of -0.15. For the same substance, in assay [2], the dissociation constant Kd was determined as 0.22 nM.
“H1L1 Fab heterodimer of LCCA set 9359 (D3H44 Fab, H1 L124R_D146N_Q179K, L1 V133G_S176D_T178E_T180E)”: in [5], the equilibrium dissociation constant (Kd) came to 0.16 nM. Further, the change in median KD of H1L1 Fab heterodimer compared to wild type (-(log(KD design)-log(KD wt))) in [6] was -0.01.
Take “D3H44 H1L1 Fab heterodimer of LCCA Set # 9987 (H1 L143E_K145T; L1 Q124R_T178R)”: the change in median KD compared to wild type, -(log(KD design)-log(KD wt)) in assay [8] came out at 0.15. In addition, the Kd in assay [9] stood at 0.11 nM.
For the substance “H1L1 Fab heterodimer of LCCA set 9214 (D3H44 Fab, H1 L124E_L143D_K145T, L1 Q124K_V133G_S176R_T178K)”, in assay [5], the Kd is 0.19 nM. Moreover, the change in median KD of H1L1 Fab heterodimer compared to wild type (-(log(KD design)-log(KD wt))) in assay [6] is -0.08.
In [3], “H1L1 Fab heterodimer of LCCA Set # 9914 (D3H44 Fab; H1 S188L_V190F, L1 WT)” displayed a Kd of 0.15 nM. In [4], this substance came in with a Change in median values of KD of h1l1 Fab heterodimer compared to wild type (-(log(KD design)-log(KD wt))) of 0.01.
“D3H44 H1L1 Fab heterodimer of LCCA Sets # 9349 and 9348 (H1 L124R_A139G_V190A; L1 V133G_L135W_S176D)” gave a Change in median values of KD of h1l1 Fab heterodimer compared to wild type (-(log(KD design)-log(KD wt))) in assay [1] of 0.03. This substance also had a Kd in [2] of 0.15 nM.
As to “D3H44 Fab heterodimer, H1 P175C_C233S / L1 S162C_C214S (H1L1 Fab of LCCA Set # 9044)”, the Kd in [7] turned out to be 0.18 nM.
Turning to “H1L1 Fab heterodimer of LCCA Set # 9843 and 9844 (D3H44 Fab; H1 S186K, L1 Q124E_S131T_T178F_T180E)”, in assay [3], the dissociation constant Kd was 0.17 nM. Moreover, in assay [4], the Change in median values of KD of h1l1 Fab heterodimer compared to wild type (-(log(KD design)-log(KD wt))) was -0.03.
In the case of “H1L1 Fab heterodimer of LCCA Set # 9805 and 9806 (D3H44 Fab; H1 Q179R, L1 Q124E_S131T_T178Y_T180E)”, the Kd in [3] turned out to be 0.13 nM. Besides, in assay [4], the Change in median values of KD of h1l1 Fab heterodimer compared to wild type (-(log(KD design)-log(KD wt))) was 0.07.
For “D3H44 Fab heterodimer, H L124R_S186K / L Q124E_V133G_S176D_T178D_T180E”, the Kd in assay [10] and in [12] was 0.26 nM throughout. Also, the Change in KD with respect to wild type (-(log(KD design) - log(KD wt))) in [11] and in [12] was -0.23 each time.
